{"source": "patent US20190075806A1", "about": "“PROTEINASE B AND LACTASE SOLUTION USING ITS PROPERTIES AND METHOD FOR PRODUCING THE SAME” (GODO SHUSEI CO., LTD., priority 2016, published 2019)", "target": "neutral lactase (GODO-YNL2; unfragmented high molecular fraction F-1, about 120 kDa) (yeast, Kluyveromyces genus) (UniProt P00723)", "sequence (P00723 whole entry, the tested form may be a part)": "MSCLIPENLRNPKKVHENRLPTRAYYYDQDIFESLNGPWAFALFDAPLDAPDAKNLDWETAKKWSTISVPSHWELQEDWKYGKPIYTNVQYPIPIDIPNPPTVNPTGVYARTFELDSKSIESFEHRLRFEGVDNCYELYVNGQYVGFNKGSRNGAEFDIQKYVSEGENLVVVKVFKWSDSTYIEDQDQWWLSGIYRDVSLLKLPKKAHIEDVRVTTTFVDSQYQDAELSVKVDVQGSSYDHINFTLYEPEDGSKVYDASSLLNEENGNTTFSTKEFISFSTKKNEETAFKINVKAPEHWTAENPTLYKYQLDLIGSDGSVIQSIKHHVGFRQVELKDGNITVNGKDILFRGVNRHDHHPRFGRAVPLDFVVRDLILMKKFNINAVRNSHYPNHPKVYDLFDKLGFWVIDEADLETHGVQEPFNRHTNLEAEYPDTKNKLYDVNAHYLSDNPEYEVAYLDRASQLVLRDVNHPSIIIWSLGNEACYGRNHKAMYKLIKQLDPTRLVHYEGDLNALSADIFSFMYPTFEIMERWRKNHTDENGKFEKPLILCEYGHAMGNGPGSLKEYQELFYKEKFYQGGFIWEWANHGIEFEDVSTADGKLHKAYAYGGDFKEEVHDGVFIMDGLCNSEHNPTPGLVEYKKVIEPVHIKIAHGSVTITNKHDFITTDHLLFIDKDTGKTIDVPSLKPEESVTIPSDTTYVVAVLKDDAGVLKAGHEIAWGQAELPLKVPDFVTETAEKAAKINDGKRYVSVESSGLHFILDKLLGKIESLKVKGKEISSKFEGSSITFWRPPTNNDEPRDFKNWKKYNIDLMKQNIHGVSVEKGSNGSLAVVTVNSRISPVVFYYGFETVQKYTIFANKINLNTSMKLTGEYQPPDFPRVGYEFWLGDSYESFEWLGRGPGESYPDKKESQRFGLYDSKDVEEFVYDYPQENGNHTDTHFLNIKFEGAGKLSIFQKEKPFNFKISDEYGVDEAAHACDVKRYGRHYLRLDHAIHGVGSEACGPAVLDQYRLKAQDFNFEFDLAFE", "assay": "cell-based or functional assay", "data": [{"substance": "proteinase B derived from Kluyveromyces lactis (mature enzyme)", "values": [{"measurement": "amount of PrB not causing fragmentation of lactase (30° C., 20 hours, SDS-PAGE)", "result": 0.26, "unit": "ng per NLU"}]}]}
